Data: IntAct's records for PubMed 19513235

B1: Mitogen-activated protein kinase kinase 2 (Arabidopsis thaliana (Mouse-ear cress)), Q9S7U9 (parent)
chain: MKKGGFSNNLKLAIPVAGEQSITKFLTQSGTFKDGDLRVNKDGVRIISQLEPEVLSPIKPADDQLSLSDLDMVKVIGKGSSGVVQLVQHKWTGQFFALKVIQLNIDEAIRKAIAQELKINQSSQCPNLVTSYQSFYDNGAISLILEYMDGGSLADFLKSVKAIPDSYLSAIFRQVLQGLIYLHHDRHIIHRDLKPSNLLINHRGEVKITDFGVSTVMTNTAGLANTFVGTYNYMSPERIVGNKYGNKSDIWSLGLVVLECATGKFPYAPPNQEETWTSVFELMEAIVDQPPPALPSGNFSPELSSFISTCLQKDPNSRSSAKELMEHPFLNKYDYSGINLASYFTDAGSPLATLGNLSGTFSV
B2: Mitogen-activated protein kinase kinase 9 (Arabidopsis thaliana (Mouse-ear cress)), Q9FX43 (parent)
chain: MALVRERRQLNLRLPLPPISDRRFSTSSSSATTTTVAGCNGISACDLEKLNVLGCGNGGIVYKVRHKTTSEIYALKTVNGDMDPIFTRQLMREMEILRRTDSPYVVKCHGIFEKPVVGEVSILMEYMDGGTLESLRGGVTEQKLAGFAKQILKGLSYLHALKIVHRDIKPANLLLNSKNEVKIADFGVSKILVRSLDSCNSYVGTCAYMSPERFDSESSGGSSDIYAGDIWSFGLMMLELLVGHFPLLPPGQRPDWATLMCAVCFGEPPRAPEGCSEEFRSFVECCLRKDSSKRWTAPQLLAHPFLREDL
partner: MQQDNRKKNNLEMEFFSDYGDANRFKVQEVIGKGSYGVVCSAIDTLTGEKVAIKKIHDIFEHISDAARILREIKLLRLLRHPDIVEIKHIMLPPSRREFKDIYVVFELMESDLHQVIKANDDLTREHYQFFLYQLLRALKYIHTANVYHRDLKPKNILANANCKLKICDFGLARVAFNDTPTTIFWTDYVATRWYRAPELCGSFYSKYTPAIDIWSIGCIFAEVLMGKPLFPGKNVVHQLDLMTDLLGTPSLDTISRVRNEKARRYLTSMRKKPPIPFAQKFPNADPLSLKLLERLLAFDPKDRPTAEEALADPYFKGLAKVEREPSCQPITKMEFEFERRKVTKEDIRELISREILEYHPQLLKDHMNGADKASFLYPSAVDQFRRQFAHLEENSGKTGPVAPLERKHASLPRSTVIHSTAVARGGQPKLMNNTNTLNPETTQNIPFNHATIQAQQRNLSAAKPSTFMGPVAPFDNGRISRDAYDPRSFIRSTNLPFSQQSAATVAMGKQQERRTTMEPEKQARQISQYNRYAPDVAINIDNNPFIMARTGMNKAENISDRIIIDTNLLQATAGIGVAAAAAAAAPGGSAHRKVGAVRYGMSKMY
B3: Mitogen-activated protein kinase kinase 9 (Arabidopsis thaliana (Mouse-ear cress)), Q9FX43 (parent)
chain: B2 chain
B4: Mitogen-activated protein kinase kinase 2 (Arabidopsis thaliana (Mouse-ear cress)), Q9S7U9 (parent)
chain: B1 chain
partner: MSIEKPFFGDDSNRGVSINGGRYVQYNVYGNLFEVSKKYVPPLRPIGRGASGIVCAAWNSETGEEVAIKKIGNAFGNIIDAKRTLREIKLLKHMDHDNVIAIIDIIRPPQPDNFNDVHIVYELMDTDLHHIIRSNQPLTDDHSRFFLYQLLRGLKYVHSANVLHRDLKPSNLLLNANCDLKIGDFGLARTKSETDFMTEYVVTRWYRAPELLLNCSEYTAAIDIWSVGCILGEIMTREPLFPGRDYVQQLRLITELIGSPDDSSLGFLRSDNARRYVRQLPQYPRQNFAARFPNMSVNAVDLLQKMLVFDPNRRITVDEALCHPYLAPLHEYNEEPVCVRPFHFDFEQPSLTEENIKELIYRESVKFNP
B5: Mitogen-activated protein kinase kinase 2 (Arabidopsis thaliana (Mouse-ear cress)), Q9S7U9 (parent)
chain: B1 chain
partner: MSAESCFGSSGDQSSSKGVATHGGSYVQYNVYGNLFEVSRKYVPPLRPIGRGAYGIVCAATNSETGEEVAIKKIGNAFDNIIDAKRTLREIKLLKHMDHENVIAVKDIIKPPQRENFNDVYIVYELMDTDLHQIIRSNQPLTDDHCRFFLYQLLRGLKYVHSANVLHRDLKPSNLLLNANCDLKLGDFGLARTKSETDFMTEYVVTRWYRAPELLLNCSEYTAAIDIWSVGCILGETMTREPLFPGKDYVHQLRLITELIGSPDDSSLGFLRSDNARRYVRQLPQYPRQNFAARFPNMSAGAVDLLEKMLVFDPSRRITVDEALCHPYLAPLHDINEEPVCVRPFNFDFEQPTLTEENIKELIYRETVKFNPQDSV
B6: Mitogen-activated protein kinase kinase 1 (Arabidopsis thaliana (Mouse-ear cress)), Q94A06 (parent)
chain: MNRGSLCPNPICLPPLEQSISKFLTQSGTFKDGDLRVNKDGIQTVSLSEPGAPPPIEPLDNQLSLADLEVIKVIGKGSSGNVQLVKHKLTQQFFALKVIQLNTEESTCRAISQELRINLSSQCPYLVSCYQSFYHNGLVSIILEFMDGGSLADLLKKVGKVPENMLSAICKRVLRGLCYIHHERRIIHRDLKPSNLLINHRGEVKITDFGVSKILTSTSSLANSFVGTYPYMSPERISGSLYSNKSDIWSLGLVLLECATGKFPYTPPEHKKGWSSVYELVDAIVENPPPCAPSNLFSPEFCSFISQCVQKDPRDRKSAKELLEHKFVKMFEDSDTNLSAYFTDAGSLIPPLAN
partner: B4 partner
B7: Mitogen-activated protein kinase kinase 1 (Arabidopsis thaliana (Mouse-ear cress)), Q94A06 (parent)
chain: B6 chain
partner: B5 partner

Variants of: B1
Details: with mpk6_arath MPK6, Q39026
mpk6_arath MPK6, Q39026, sequence (Q39026 whole entry): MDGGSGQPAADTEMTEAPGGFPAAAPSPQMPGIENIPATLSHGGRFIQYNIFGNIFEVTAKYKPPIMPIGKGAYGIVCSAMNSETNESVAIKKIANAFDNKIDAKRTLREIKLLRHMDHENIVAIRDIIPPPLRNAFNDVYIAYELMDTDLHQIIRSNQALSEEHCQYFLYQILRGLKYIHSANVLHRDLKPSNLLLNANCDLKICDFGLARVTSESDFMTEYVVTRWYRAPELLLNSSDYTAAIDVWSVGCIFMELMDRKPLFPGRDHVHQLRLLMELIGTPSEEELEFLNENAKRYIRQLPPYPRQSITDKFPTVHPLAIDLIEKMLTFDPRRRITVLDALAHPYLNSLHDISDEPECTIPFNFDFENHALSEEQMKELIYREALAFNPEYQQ

| Variant | effect of a mutation on the interaction |
| --- | --- |
| T226E | increasing interaction |
| T220D | increasing interaction |

Variants of: B1
Details: with mpk10_arath MPK10, Q9M1Z5
mpk10_arath MPK10, Q9M1Z5, sequence (Q9M1Z5 whole entry): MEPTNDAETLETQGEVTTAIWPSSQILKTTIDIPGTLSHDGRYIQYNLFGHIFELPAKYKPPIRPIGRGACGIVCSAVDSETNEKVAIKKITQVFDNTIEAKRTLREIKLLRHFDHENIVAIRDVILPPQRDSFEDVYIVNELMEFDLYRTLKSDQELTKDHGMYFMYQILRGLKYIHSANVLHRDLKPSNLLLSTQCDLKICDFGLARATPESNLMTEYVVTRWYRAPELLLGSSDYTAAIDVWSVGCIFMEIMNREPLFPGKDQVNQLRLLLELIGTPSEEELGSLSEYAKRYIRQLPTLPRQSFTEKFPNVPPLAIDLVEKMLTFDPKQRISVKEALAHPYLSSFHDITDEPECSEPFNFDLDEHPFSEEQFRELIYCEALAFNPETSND

| Variant | effect of a mutation on the interaction |
| --- | --- |
| T226E | increasing interaction |
| T220D | increasing interaction |

Variants of: B1
Details: with mpk13_arath MPK13, Q9LQQ9
mpk13_arath MPK13, Q9LQQ9, sequence (Q9LQQ9 whole entry): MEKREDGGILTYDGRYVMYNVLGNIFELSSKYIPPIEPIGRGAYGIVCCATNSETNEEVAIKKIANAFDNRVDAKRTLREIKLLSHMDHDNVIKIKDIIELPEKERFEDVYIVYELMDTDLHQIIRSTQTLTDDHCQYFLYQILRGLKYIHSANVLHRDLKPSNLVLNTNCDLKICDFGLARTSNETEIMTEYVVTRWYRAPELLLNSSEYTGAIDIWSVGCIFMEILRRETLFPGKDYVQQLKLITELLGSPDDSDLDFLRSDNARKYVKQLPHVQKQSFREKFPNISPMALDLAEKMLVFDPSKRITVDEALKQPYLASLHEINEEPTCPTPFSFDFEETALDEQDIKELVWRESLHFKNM

| Variant | effect of a mutation on the interaction |
| --- | --- |
| T226E | increasing interaction |
| T220D | increasing interaction |

Variants of: B2
Details: with mpk20_arath MPK20, Q9SJG9

| Variant | effect of a mutation on the interaction |
| --- | --- |
| S195E | increasing interaction |
| S201E | increasing interaction |

Variants of: B3
Details: with mpk6_arath MPK6, Q39026

| Variant | effect of a mutation on the interaction |
| --- | --- |
| S201E | increasing interaction |
| S195E | increasing interaction |

Variants of: B3
Details: with mpk10_arath MPK10, Q9M1Z5

| Variant | effect of a mutation on the interaction |
| --- | --- |
| S201E | increasing interaction |
| S195E | increasing interaction |

Variants of: B4
Details: with mpk11_arath MPK11, Q9LMM5

| Variant | effect of a mutation on the interaction |
| --- | --- |
| T220D | increasing interaction |
| T226E | increasing interaction |

Variants of: B5
Details: with mpk4_arath MPK4, Q39024

| Variant | effect of a mutation on the interaction |
| --- | --- |
| T220D | increasing interaction |
| T226E | increasing interaction |

Variants of: B6
Details: with mpk11_arath MPK11, Q9LMM5

| Variant | effect of a mutation on the interaction |
| --- | --- |
| S224D | increasing interaction |
| T218E | increasing interaction |

Variants of: B7
Details: with mpk4_arath MPK4, Q39024

| Variant | effect of a mutation on the interaction |
| --- | --- |
| S224D | increasing interaction |
| T218E | increasing interaction |
